Test results taken from US20050261472A1, “Binding moieties for fibrin” (Dyax Corp., priority 1999, published 2005).
Bridge positions count the residues as written; N and C are the ends. Ends that are not written are not given here.

T1: fibrinogen (UniProt P02671 20-629; P02675 31-491; P02679 27-437, limits assumed)
T1 sequence (looked up) 1: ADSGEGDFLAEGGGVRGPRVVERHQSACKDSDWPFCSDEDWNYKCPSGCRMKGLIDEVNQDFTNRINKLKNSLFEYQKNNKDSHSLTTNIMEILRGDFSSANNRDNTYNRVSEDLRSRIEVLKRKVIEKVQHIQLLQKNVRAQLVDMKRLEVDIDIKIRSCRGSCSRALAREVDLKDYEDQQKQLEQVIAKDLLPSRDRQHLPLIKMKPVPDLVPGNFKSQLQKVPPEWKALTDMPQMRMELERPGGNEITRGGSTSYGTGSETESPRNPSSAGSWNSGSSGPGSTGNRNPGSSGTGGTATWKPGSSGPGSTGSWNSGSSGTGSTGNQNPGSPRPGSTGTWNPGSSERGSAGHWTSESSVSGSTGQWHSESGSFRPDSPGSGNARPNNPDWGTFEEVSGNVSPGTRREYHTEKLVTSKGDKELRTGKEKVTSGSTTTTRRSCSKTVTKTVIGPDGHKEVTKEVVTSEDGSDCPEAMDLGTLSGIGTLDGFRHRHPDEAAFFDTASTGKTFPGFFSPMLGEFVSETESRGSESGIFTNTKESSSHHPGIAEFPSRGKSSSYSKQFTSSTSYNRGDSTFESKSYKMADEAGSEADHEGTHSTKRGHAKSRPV
T1 sequence (looked up) 2: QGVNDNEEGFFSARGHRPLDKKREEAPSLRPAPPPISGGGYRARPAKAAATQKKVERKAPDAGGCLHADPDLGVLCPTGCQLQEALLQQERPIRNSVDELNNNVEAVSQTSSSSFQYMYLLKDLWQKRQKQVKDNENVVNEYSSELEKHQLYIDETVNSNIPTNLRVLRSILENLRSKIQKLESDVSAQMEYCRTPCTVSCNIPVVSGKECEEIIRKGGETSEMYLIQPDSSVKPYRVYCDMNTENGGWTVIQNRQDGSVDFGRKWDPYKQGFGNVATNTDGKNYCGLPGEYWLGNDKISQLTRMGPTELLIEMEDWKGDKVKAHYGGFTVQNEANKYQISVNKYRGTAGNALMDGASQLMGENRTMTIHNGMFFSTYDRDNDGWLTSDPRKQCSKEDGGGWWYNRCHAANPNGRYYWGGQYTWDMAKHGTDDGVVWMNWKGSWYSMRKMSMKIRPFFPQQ
T1 sequence (looked up) 3: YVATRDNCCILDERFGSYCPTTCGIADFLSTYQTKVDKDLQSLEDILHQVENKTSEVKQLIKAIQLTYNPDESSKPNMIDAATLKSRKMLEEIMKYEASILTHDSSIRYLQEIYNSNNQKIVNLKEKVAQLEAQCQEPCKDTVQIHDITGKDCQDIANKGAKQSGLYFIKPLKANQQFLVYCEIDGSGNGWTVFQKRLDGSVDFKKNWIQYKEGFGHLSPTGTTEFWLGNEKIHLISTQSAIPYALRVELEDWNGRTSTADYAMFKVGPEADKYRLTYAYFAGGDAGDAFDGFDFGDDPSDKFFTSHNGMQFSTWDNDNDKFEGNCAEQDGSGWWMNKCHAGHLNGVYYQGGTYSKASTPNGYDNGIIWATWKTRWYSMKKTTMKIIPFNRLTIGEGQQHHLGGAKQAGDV


Legend:
[1] = target: DD(E) soluble fibrin-derived polypeptide (UniProt P02671); assay: Kd against DD(E) target
human serum albumin = target: T2, human serum albumin (human, UniProt P02768 25-609); assay: phage ELISA on immobilised HSA
T2 construct: also called HSA
T2 sequence (P02768 25-609 limits assumed): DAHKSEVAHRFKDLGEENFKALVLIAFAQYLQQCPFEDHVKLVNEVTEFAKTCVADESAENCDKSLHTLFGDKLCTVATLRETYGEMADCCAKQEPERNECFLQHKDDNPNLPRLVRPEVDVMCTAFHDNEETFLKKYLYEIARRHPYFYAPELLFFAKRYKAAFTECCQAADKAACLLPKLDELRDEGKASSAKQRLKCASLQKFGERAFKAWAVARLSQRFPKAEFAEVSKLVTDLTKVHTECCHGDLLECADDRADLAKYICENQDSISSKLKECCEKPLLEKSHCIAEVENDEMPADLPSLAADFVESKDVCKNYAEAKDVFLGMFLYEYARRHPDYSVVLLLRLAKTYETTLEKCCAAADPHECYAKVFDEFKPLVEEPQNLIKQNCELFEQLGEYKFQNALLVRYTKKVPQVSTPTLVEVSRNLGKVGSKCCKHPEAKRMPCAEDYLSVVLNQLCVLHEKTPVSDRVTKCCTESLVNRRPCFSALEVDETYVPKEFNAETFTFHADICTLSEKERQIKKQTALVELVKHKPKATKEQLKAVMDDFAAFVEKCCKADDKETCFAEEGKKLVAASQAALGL
Experimental: (§1) After five rounds of selection, the eluted phage were propagated and a portion plated to isolate phage plaques arising from individual clones. Ninety such clones were selected randomly, propagated, and tested individually for binding to fibrin in a dried fibrin plate assay. Dried fibrin plates were prepared as described above for the library screening. Phage samples (˜10⁹ phage each) were incubated in the dried fibrin plate wells in binding buffer (50 mM Tris, 150 mM NaCl, 2 mM CaCl₂, 0.05% Tween-20) containing 0.1% HSA. After 1 hour, the plates were washed 5 times with binding buffer. Anti-M13 antibody conjugated to horseradish peroxidase (Pharmacia) was added at 1/5000 dilution in binding buffer to the wells and incubated with the fibrin for 1 hour. The wells were again washed 5 times with binding buffer and the presence of the antibody/phage/fibrin complex was measured with HRP calorimetric reagents (3,3′,5,5′-tetrarnethylbenzidine (TMB) and H₂O₂). A high absorbance at 595 nm (due to oxidized TMB) was indicative of a tight phage/fibrin interaction, and phage clones corresponding to those wells were identified as bearing fibrin-binding moieties.
(§2) These fibrin-binding positive clones were subjected to several secondary ELISA assays. These assays followed a similar protocol to that detailed above for the dried fibrin ELISA assay, the only variations being the method of target immobilization and the omission of HSA from binding and wash buffers. A screen against DD(E) acted as a further confirmation of fibrin binding activity. An ELISA screen against fibrinogen (immobilized to the plate by the biotin/streptavidin protocol used for DD(E)) was a check against fibrinogen binding and confirmed that the negative selection procedure detailed in Example 2 had been effective. Finally, ELISAs to assay binding to immobilized HSA (passively bound to the polystyrene plate) and a target-free microtiter plate were controls to eliminate phage that bound promiscuously or nonspecifically.

fibrinogen = target: T1, fibrinogen; assay: phage ELISA on immobilised fibrinogen
Experimental: as §1, §2

Binder	Kd [1]	binding result (human serum albumin)	binding result (fibrinogen)
H-LPCSYYGTCLH-NH2 (disulfide 3-9; SMILES CC(C)C[C@H](NC(=O)[C@@H]1CSSC[C@H](NC(=O)[C@@H]2CCCN2C(=O)[C@@H](N)CC(C)C)C(=O)N[C@@H](CO)C(=O)N[C@@H](Cc2ccc(O)cc2)C(=O)N[C@@H](Cc2ccc(O)cc2)C(=O)NCC(=O)N[C@@H]([C@@H](C)O)C(=O)N1)C(=O)N[C@@H](Cc1c[nH]cn1)C(N)=O) [synthetic polypeptide …]	9.8 µM	–	–
H-PCDYYGTCL-NH2 (disulfide 2-8 (inferred)) [truncated peptide …]	50 µM	–	–
H-CDYYGTCL-NH2 (disulfide 1-7 (inferred)) [truncated peptide CDYYGTCL]	22 µM	–	–
H-CDYYGTC-NH2 (disulfide 1-7 (inferred)) [truncated peptide CDYYGTC]	38 µM	–	–
LPCDYYXTCLD (not fully specified; D-alanine at position 7) [D-alanine peptide LPCDYYdATCLD]	4.9 µM	–	–
H-LACDYYGTCLD-NH2 (disulfide 3-9; SMILES CC(C)C[C@H](NC(=O)[C@@H]1CSSC[C@H](NC(=O)[C@H](C)NC(=O)[C@@H](N)CC(C)C)C(=O)N[C@@H](CC(=O)O)C(=O)N[C@@H](Cc2ccc(O)cc2)C(=O)N[C@@H](Cc2ccc(O)cc2)C(=O)NCC(=O)N[C@@H]([C@@H](C)O)C(=O)N1)C(=O)N[C@@H](CC(=O)O)C(N)=O)	2.9 µM	–	–
H-LPCAYYGTCLD-NH2 (disulfide 3-9; SMILES CC(C)C[C@H](NC(=O)[C@@H]1CSSC[C@H](NC(=O)[C@@H]2CCCN2C(=O)[C@@H](N)CC(C)C)C(=O)N[C@@H](C)C(=O)N[C@@H](Cc2ccc(O)cc2)C(=O)N[C@@H](Cc2ccc(O)cc2)C(=O)NCC(=O)N[C@@H]([C@@H](C)O)C(=O)N1)C(=O)N[C@@H](CC(=O)O)C(N)=O)	5.9 µM	–	–
H-LPCDAYGTCLD-NH2 (disulfide 3-9; SMILES CC(C)C[C@H](NC(=O)[C@@H]1CSSC[C@H](NC(=O)[C@@H]2CCCN2C(=O)[C@@H](N)CC(C)C)C(=O)N[C@@H](CC(=O)O)C(=O)N[C@@H](C)C(=O)N[C@@H](Cc2ccc(O)cc2)C(=O)NCC(=O)N[C@@H]([C@@H](C)O)C(=O)N1)C(=O)N[C@@H](CC(=O)O)C(N)=O)	4.5 µM	–	–
LPCDYYATCLD (C-terminal amide; N-terminus free)	12.3 µM	–	–
H-LPCDYYGTCAD-NH2 (disulfide 3-9; SMILES CC(C)C[C@H](N)C(=O)N1CCC[C@H]1C(=O)N[C@H]1CSSC[C@@H](C(=O)N[C@@H](C)C(=O)N[C@@H](CC(=O)O)C(N)=O)NC(=O)[C@H]([C@@H](C)O)NC(=O)CNC(=O)[C@H](Cc2ccc(O)cc2)NC(=O)[C@H](Cc2ccc(O)cc2)NC(=O)[C@H](CC(=O)O)NC1=O)	10.1 µM	–	–
H-LPCDYYGSCLD-NH2 (disulfide 3-9 (inferred))	26 µM	–	–
H-LPCDYYGVCLD-NH2 (disulfide 3-9 (inferred))	28 µM	–	–
LPCDYXGTCLD (1-naphthyl residue (Nal) at position 6; C-terminal amide; N-terminus free) [substituted peptide LPCDYNalGTCLD]	125 µM	–	–
GFHCPYDLCHIL	6.7 µM	–	–
FHCPYDLCHIL	0.41 µM	–	–
HCPYDLCHIL	3.8 µM	–	–
FHCPYDLCHI	2 µM	–	–
WECPYGLCWIQ	0.94 µM	–	–
ECPYGLCWIQ	2.23 µM	–	–
WECPYGLCWI	3.87 µM	–	–
GWFHCPYDLCHIL (disulfide 5-10 (inferred); not fully specified (N-terminus); printed as Trp-Phe-His-Cys-Pro-Tyr-Asp-Leu-Cys-His-Ile-Leu; also: Gd(III) chelated by DTPA on N-terminal Gly) [Gd-DTPA-Gly[SEQ ID NO: 21]]	2.9 µM	–	–
LPCDYYGTCLD (Tested as a phage clone; not shown: not specified) [TN7 isolate 3, phage-displayed LPCDYYGTCLD]	–	no binding	–
RPCDYYGTCFD (not fully specified (bridges); cysteine pairing not given here, Tested as a phage clone; not shown: not specified) [TN7 isolate 1, phage-displayed RPCDYYGTCFD]	–	no binding	no binding
RSCNYYGTCLH (not fully specified (bridges); cysteine pairing not given here, Tested as a phage clone; not shown: not specified) [TN7 isolate 9, phage-displayed RSCNYYGTCLH]	–	no binding	no binding
RPCNYYGTCLH (not fully specified (bridges); cysteine pairing not given here, Tested as a phage clone; not shown: not specified) [TN7 isolate 10, phage-displayed RPCNYYGTCLH]	–	no binding	no binding
HDCQYYGTCLH (not fully specified (bridges); cysteine pairing not given here, Tested as a phage clone; not shown: not specified) [TN7 isolate 11, phage-displayed HDCQYYGTCLH]	–	no binding	no binding
FSCWYSLHCHR (not fully specified (bridges); cysteine pairing not given here, Tested as a phage clone; not shown: not specified) [TN7 isolate 12, phage-displayed FSCWYSLHCHR]	–	no binding	no binding
LSCDYYGTCLR (not fully specified (bridges); cysteine pairing not given here, Tested as a phage clone; not shown: not specified) [TN7 isolate 2, phage-displayed LSCDYYGTCLR]	–	no binding	no binding
